Results from US20090285771A1.

Molecular target: growth hormone (GH) receptor (mouse) (UniProt P16882)
Assay: cell-based or functional assay

GH receptor mRNA expression levels in the liver (quantitative RT-PCR, normalized to GAPDH, % of control), 60 minutes after 30 µg subcutaneous rGH in BALB/c mice (% of level prior to administration): 65
IGF-1-BP3 mRNA expression levels in the liver (quantitative RT-PCR, normalized to GAPDH, % of control), 60 minutes after 30 µg subcutaneous rGH in BALB/c mice: 250 % increase
Substance: recombinant rat growth hormone (from UniProt P01244 27-216) (ligand)
